Patent US20250361314A1 (SHANGHAI HUAOTA BIOPHARMACEUTICAL, published 2025)

T1: Cynomolgus CD73 antigen (cynomolgus, UniProt A0A2K5V5U7 27-547)
T1 construct: Antigen used as analyte in SPR
T1 sequence: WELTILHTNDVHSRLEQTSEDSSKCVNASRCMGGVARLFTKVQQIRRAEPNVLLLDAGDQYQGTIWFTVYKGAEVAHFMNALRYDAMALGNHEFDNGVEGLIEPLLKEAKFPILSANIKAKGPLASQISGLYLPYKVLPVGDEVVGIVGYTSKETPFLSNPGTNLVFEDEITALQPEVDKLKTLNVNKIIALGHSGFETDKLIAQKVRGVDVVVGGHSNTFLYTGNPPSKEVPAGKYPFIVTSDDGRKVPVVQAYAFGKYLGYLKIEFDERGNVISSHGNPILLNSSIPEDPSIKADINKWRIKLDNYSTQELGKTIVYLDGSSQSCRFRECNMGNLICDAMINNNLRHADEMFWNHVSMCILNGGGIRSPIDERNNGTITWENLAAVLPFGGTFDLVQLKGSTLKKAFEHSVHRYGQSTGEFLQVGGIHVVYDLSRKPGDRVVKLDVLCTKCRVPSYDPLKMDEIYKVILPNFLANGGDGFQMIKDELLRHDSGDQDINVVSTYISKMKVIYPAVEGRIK

T2: Human CD39 antigen (human, UniProt P49961 38-478)
T2 construct: Antigen used as analyte in SPR; also called ENTPD1
T2 sequence (looked up): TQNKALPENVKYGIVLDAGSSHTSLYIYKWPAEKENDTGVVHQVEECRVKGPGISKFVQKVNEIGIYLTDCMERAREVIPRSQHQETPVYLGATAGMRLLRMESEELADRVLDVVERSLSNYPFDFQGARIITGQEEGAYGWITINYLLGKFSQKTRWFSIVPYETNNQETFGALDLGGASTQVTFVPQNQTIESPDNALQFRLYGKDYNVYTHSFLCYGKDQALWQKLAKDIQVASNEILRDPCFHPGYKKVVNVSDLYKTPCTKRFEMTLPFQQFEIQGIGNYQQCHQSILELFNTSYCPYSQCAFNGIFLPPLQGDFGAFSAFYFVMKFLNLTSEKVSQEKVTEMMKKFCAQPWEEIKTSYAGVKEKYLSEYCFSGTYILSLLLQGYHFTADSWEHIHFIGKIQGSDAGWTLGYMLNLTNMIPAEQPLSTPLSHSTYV

T3: Human CD73 antigen (human, UniProt P21589 27-547, limits assumed)
T3 construct: Antigen used as analyte in SPR; also called NT5E
T3 sequence (looked up): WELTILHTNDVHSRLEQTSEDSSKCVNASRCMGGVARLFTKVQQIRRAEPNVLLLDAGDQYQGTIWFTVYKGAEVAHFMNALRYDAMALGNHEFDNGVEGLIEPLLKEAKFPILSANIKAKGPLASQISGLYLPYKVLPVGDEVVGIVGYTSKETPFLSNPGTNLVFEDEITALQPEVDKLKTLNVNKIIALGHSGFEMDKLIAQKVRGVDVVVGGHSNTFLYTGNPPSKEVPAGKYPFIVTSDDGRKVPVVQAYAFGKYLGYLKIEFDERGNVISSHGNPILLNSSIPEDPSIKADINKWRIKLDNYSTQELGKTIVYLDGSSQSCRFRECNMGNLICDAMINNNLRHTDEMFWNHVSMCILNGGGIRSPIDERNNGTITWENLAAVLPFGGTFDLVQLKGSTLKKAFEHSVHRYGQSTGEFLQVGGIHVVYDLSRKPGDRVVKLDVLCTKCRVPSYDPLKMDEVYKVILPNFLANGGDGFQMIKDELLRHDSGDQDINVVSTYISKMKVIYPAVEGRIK


Experiments:
Cynomolgus CD73 antigen = biological target: T1, Cynomolgus CD73 antigen; assay: SPR (Biacore 8K), species cross test, antibody captured on anti-human capture CM5 chip, antigen as analyte, 1:1 model
Description: The experimental method is as follows:
(§1) An Anti-Human Capture-CM5 chip (GE, #BR-1005-30) was prepared using coupling methods of a Human Antibody Capture Kit (GE, #BR-1008-39) and an amino coupling kit (GE, BR-1000-50). The chip was equilibrated at room temperature for about 20-30 min and loaded into a Biacore 8K instrument. The antigen and antibody were diluted to an experimental working concentration using an equilibration buffer. The antigen was diluted with an equilibrium buffer to 50 nM, and then diluted three-fold for seven concentration gradients, and two zero concentrations (i.e., the equilibrium buffer) and one repeat concentration (typically the lowest concentration repeat) were set. Experimental analysis was performed on 10 antigen concentrations (2 zero concentrations, 7 gradient concentrations, and 1 repeated concentration) in a cyclic manner according to an order of antibody, antigen, and regeneration. The antigen injection flow rate was 30 μL/min, the binding time was 120 s, and the dissociation time was 600 s. Following the analysis, the data was analyzed using the corresponding analysis program to confirm that there was no obvious reference binding. Using Kinetics and a 1:1 binding model, the data was fit to obtain the kinetic related parameters Ka, Kd, and KD values of the bispecific antibodies.

Human CD39 antigen = biological target: T2, Human CD39 antigen; assay: SPR (Biacore 8K), antibody captured on anti-human capture CM5 chip, antigen as analyte, 1:1 model
Description: as §1, with “for” for “for about”, “20-30 mins” for “20-30 min”, “The antigens were” for “The antigen was”, “with the” for “with an”, “bispecific antibodies and parental control” for “bispecific”

Human CD73 antigen = biological target: T3, Human CD73 antigen; assay: as above
Description: as §1, with “for” for “for about”, “20-30 mins” for “20-30 min”, “The antigens were” for “The antigen was”, “with the” for “with an”, “bispecific antibodies and parental control” for “bispecific”

| Binder | Kd (Cynomolgus CD73 antigen) [nM] | koff (Cynomolgus CD73 antigen) [s⁻¹] | kon (Cynomolgus CD73 antigen) [M⁻¹ s⁻¹] | Kd (Human CD39 antigen) [nM] | koff (Human CD39 antigen) [s⁻¹] | kon (Human CD39 antigen) [M⁻¹ s⁻¹] | Kd (Human CD73 antigen) [nM] | koff (Human CD73 antigen) [s⁻¹] | kon (Human CD73 antigen) [M⁻¹ s⁻¹] |
| --- | --- | --- | --- | --- | --- | --- | --- | --- | --- |
| CD39/CD73 bispecific antibody 700035 (CD39-VHH-CD73-IgG) (bispecific antibody) heavy: not shown light: DIQMTQSPSSMSASVGDRVTITCKASQNVRTAVVWYQQKPGKAPKALIYLASNRHTGVPDRFSGSGSGTDFTLTISSLQPEDFATYFCLQHWNYPYTFGQGTKLEIKRTVAAPSVFIFPPSDEQLKSGTASVVCLLNNFYPREAKVQWKVDNALQSGNSQESVTEQDSKDSTYSLSSTLTLSKADYEKHKVYACEVTHQGLSSPVTKSFNRGEC | 0.409 | 0.000342 | 836000 | 0.0708 | 9.28e-05 | 1.31e+06 | 0.341 | 0.000319 | 935000 |
| CD39/CD73 bispecific antibody 700038 (CD39-VHH-CD73-IgG) (bispecific antibody) heavy: not shown light: DIQMTQSPSSLSASVGDRVTITCRASQDVGTAEAWYQQKPGKAPKLLIYWASTRHTGVPSRFSGSGSGTDFTLTISSLQPEDFATYYCQQYSSYPLTFGQGTKLEIKRTVAAPSVFIFPPSDEQLKSGTASVVCLLNNFYPREAKVQWKVDNALQSGNSQESVTEQDSKDSTYSLSSTLTLSKADYEKHKVYACEVTHQGLSSPVTKSFNRGEC | 0.326 | 0.000148 | 456000 | 0.0918 | 9.54e-05 | 1.04e+06 | 0.425 | 0.000249 | 587000 |
